Measurements reported in article PMC4794675 (Journal of Virology, 2016).

Columns and labels:
[1] = biological target: T1, Soluble E2 (sE2), amino acids 384 to 661 of HCV genotype 1a strain H77 (Hepatitis C virus genotype 1a, H77, UniProt P27958); experiment: SPR; Biacore 3000, sE2 immobilised on CM5 by amine coupling; MAbs or Fabs injected; HBS pH 7.2, 25°C, 20 μl/min; 1:1 Langmuir fit; conditions: both partners purified
T1 construct: source: High Five insect cells, recombinant baculovirus, secreted, purified (Ni-nitrilotriacetic acid chromatography)

[2] = biological target: T2, BSA2 (glutaraldehyde-self-conjugated BSA) (Bos taurus, UniProt P02769); experiment: ELISA; conditions: both partners purified
T2 construct: bovine serum albumin; also called BSA2 control; source: BSA self-conjugated with 0.2% glutaraldehyde, dialysed

[3] = biological target: T3, full-length (FL) E2 protein (Hepatitis C virus; strain of this …); experiment: ELISA; conditions: one partner purified
T3 construct: source: HEK293T, transfected, in clarified lysate

[4] = biological target: T4, sE2 expressed in mammalian cells (HEK293T lysate) (Hepatitis C virus; strain of this …); experiment: ELISA; conditions: one partner purified
T4 construct: also called mammalian cell-expressed sE2; source: HEK293T, transfected, in clarified lysate

[5] = biological target: T5, E1E2 heterodimer (E1E2 glycoprotein) (Hepatitis C virus; strain of this …); experiment: ELISA; conditions: one partner purified
T5 construct: source: HEK293T, transfected, in clarified lysate

T1 sequence (P27958 384-661): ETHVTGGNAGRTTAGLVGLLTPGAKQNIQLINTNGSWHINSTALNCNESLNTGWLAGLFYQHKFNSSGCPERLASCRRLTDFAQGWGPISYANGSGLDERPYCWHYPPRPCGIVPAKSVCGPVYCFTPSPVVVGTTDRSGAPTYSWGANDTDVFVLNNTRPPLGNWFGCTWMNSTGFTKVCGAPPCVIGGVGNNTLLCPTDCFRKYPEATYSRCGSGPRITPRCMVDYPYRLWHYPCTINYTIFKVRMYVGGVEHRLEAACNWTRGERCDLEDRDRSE
T3 sequence (P27958 384-746): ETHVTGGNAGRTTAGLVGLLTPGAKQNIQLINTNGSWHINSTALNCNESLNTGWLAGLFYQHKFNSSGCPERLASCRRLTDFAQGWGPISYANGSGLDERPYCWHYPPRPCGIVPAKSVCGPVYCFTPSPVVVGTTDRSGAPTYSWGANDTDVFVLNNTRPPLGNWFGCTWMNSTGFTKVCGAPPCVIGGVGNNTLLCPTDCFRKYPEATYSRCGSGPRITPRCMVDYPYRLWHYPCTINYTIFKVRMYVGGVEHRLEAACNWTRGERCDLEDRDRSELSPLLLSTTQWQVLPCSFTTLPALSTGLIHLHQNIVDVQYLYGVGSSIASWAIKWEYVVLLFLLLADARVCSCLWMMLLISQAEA
T2 sequence (P02769 25-607): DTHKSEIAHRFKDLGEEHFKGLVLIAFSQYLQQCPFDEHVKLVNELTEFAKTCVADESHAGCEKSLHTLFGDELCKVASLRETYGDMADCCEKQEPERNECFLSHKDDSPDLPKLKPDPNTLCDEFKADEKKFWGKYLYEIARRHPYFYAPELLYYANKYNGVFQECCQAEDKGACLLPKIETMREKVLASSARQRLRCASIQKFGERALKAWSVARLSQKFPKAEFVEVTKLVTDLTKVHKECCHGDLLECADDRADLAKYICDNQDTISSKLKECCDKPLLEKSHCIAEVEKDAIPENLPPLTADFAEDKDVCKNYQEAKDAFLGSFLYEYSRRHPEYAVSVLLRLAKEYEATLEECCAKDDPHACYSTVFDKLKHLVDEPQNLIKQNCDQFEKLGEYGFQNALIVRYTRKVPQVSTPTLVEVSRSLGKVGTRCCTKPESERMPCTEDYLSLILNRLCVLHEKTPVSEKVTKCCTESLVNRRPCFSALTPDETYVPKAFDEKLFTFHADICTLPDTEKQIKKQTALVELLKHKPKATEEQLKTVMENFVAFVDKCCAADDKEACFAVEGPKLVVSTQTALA

Row | Binder | Kd [1] [nM] | koff [1] [s⁻¹] | kon [1] [M⁻¹ s⁻¹] | binding result [2] | binding result [3] | binding result [4] | binding result [5]
1 | MAb C2 (mouse monoclonal antibody against C-epitope I) (antibody, V domains shown, source: also used as hybridoma supernatant) VH: EVQLQQPGAELVRPGGSVKLSCKASGYSFTTYWMNWVKQRPGQGLEWIGMIQPSDSETRLNQKFKDKATLTLDRSSSTVYMQLSSPTSDDSAVYYCARTGRGDAWLTYWGQGTSVTVSS VL: NIVLTQSPVSLAVSLGQRATISCRASKSVSTSGYSYMHWYQQKPGQPPRLLLYLGSNLESGVPARFSGSGSGTDFTLNIHPVEEEDAATYYCQHIRELTRSFGGGTKLEIK | 49.8 | 0.000848 | 18800 | no binding |  |  | 
2 | Fab fragment of the C2 antibody (Fab, V domains shown, source: papain digestion of purified IgG; Fc removed on protein G, gel filtration) VH: EVQLQQPGAELVRPGGSVKLSCKASGYSFTTYWMNWVKQRPGQGLEWIGMIQPSDSETRLNQKFKDKATLTLDRSSSTVYMQLSSPTSDDSAVYYCARTGRGDAWLTYWGQGTSVTVSS VL: NIVLTQSPVSLAVSLGQRATISCRASKSVSTSGYSYMHWYQQKPGQPPRLLLYLGSNLESGVPARFSGSGSGTDFTLNIHPVEEEDAATYYCQHIRELTRSFGGGTKLEIK | 301 | 0.00463 | 12800 |  |  |  | 
3 | MAb AP33 (broadly neutralizing mouse monoclonal antibody) (antibody, V domains shown) VH: EVQLQESGPSLVKPSQTLSLTCSVTGDSITSGYWNWIRKFPGNKLEYMGYISYSGSTYYNLSLRSRISITRDTSKNQYYLQLNSVTTEDTATYYCALITTTTYAMDYWGQGTSVTVSS VL: NIVLTQSPVSLAVSLGQRATISCRASESVDGYGNSFLHWFQQKPGQPPKLLIYLASNLNSGVPARFSGSGSRTDFTLTIDPVEADDAATYYCQQNNVDPWTFGGGTKLEIK | 0.142 | 6.4e-05 | 649000 |  | binds | binds | binds
4 | Fab fragment of AP33 (Fab, V domains shown, source: papain digestion of purified IgG; Fc removed on protein G, gel filtration) VH: EVQLQESGPSLVKPSQTLSLTCSVTGDSITSGYWNWIRKFPGNKLEYMGYISYSGSTYYNLSLRSRISITRDTSKNQYYLQLNSVTTEDTATYYCALITTTTYAMDYWGQGTSVTVSS VL: NIVLTQSPVSLAVSLGQRATISCRASESVDGYGNSFLHWFQQKPGQPPKLLIYLASNLNSGVPARFSGSGSRTDFTLTIDPVEADDAATYYCQQNNVDPWTFGGGTKLEIK | 0.72 | 0.000147 | 230000 |  |  |  | 
